We go through one protein from article PMC7717681, “Biochemical and structural characterisation of a protozoan beta-carbonic anhydrase from Trichomonas vaginalis” (Journal of Enzyme Inhibition and Medicinal Chemistry, 2020).

This series concerns the molecule itself. Kind of series: SEC-MALS; SEC combined with static and dynamic light scattering (SEC-SLS/DLS, right-angle light scattering) and a SEC standard curve; Superdex 200 5/150, 50 mM NaH2PO4, 500 mM NaCl, pH 8, 20 °C; after His-tag removal. Background: In gel filtration, larger molecules generally elute earlier.

B1: beta-carbonic anhydrase from Trichomonas vaginalis (TvaCA1) (enzyme)
chain: MSQLELITSANQAFLEANPELTKLNKAPQRHIAIVTCMDTRLVNFAEDAIGVKRGEATVIKAAGNGIWTTGLSDIVVSLLVSIYELGVQEIFIMGHECCGMTHASTDSLGAQMLKSGIKPEDIEKFKSDLSKWVDDFKDPIDNIKNSVRCVRENPLIPKNIPIHGLLIHPDTGKVTTIINGY
notes: TvaCA1, beta-carbonic anhydrase of Trichomonas vaginalis, gene TVAG_005270, UniProt A2ENQ8; Zinc metalloenzyme; The His-tag was removed by thrombin at an LVPRGS site; also called β-CA from T. vaginalis; source: E. coli BL21 Star (DE3), purified (Ni2+-NTA, His-tag removed by thrombin, second Ni2+-NTA; SEC in addition for crystallisation); not shown: His6, N-terminal, cleaved
The stoichiometry N is a count of units in the complex or per binding partner. Take B1: the “stoichiometry N” value amounted to 2.
